{"source": "paper PMC10696396", "about": "(2023)", "binders": {"B1": {"name": "His6-SUMO-HilE (natural protein)", "chain": "MDAIYLKLDGIEGESRIKGFENQIKLIAYNHNPTKRESGEARGTYIGGLTLTKPVDLATPGLYEHYCNGKTVKEGVLTLCRRDKGAMLPFIIYTLTNVRISRMSNHGDAEGSATETVDLVYSHIRWDIPALASKSKTRRPLHRQALWR", "modifications": "RED-tris-NTA 2nd Generation dye bound to the His6 tag"}, "B2": {"name": "HilE (natural protein)", "chain": "B1 chain"}, "B3": {"name": "HilD (full-length, unfused) (natural protein)", "chain": "MENVTFVSNSHQRPAADNLQKLKSLLTNTRQQIKSQTQQVTIKNLYVSSFTLVCFRSGKLTISNNHDTIYCDEPGMLVLKKEQVVNVTLEEVNGHMDFDILEIPTQRLGALYALIPNEQQTKMAVPTEKAQKIFYTPDFPARREVFEHLKTAFSCTKDTSKGCSNCNNKSCIENEELIPYFLLFLLTAFLRLPESYEIILSSAQITLKERVYNIISSSPSRQWKLTDVADHIFMSTSTLKRKLAEEGTSFSDIYLSARMNQAAKLLRIGNHNVNAVALKCGYDSTSYFIQCFKKYFKTTPSTFIKMANH"}}, "assay_in_all_cases": "MST", "key": {"HilD K279M": {"target": "HilD K279M"}, "HilD S216I/S218D": {"target": "HilD S216I/S218D"}, "[1]": {"target": "EYFP-HilD E102A/K264A/R267A"}, "His6-SUMO-HilE": {"target": "B1"}}, "data": [{"binder": "B1", "values": [{"measurement": "Kd", "setting": "HilD K279M", "result": 2120, "unit": "nM"}, {"measurement": "Kd", "setting": "HilD S216I/S218D", "result": 1160, "unit": "nM"}]}, {"binder": "B2", "values": [{"measurement": "Kd", "setting": "[1]", "result": 1680, "unit": "nM"}]}, {"binder": "B3", "values": [{"measurement": "Kd", "setting": "His6-SUMO-HilE", "result": 1890, "unit": "nM"}]}]}
